Experimental data as given in the Human Domainome abundance scans (Beltran et al. 2025).

B1: KAT8 regulatory NSL complex subunit 2, residues 28 to 91; numbered along this chain, Q9H9L4 (parent)
chain: CAFTHRPCSHPRLEGQEFCIKHILEDKNAPFKQCSYISTKNGKRCPNAAPKPEKKDGVSFCAEH
B2: Androgen receptor, residues 557 to 632; numbered along this chain, P10275 (parent)
chain: QKTCLICGDEASGCHYGALTCGSCKVFFKRAAEGKQKYLCASRNDCTIDKFRRKNCPSCRLRKCYEAGMTLGARKL

Variants of: B1
Experiment: abundance fitness (aPCA) (normalised: wild type 0, dead -1); higher = more abundant; growth selection in yeast, the domain comes from the species named
Conditions: Homo sapiens

Abundance fitness, by site and new letter:
E63: L -0.17, G -0.034, V -0.175, A -0.064, C -0.111, M -0.165, D 0.003, Q -0.175, Y -0.138, W -0.086, I -0.223, K -0.09, P -0.188, F -0.107, R -0.024, N -0.062, H 0.136, S -0.093, T -0.054
S59: Q -0.045, M -0.084, R -0.12, N -0.189, W 0.01, Y -0.048, L -0.037, P -0.141, T -0.036, V -0.095
A62: G -0.078, S -0.055, F -0.111, I -0.057, N -0.105, Q -0.057, V -0.059, R -0.028, E -0.101, L -0.087, H -0.081, Y -0.198, T -0.065, W -0.088, C -0.018, P -0.065, K 0.095, M -0.103, D -0.093
C61: F -0.722, Y -0.585, M -0.573, N -0.449, S -0.432, T -0.356, W -0.667, Q -0.44, I -0.499, A -0.483, K -0.436, R -0.56, G -0.393, H -0.447, E -0.399, V -0.426
H64: N -0.441, V -0.534, P -0.401, M -0.333, Y -0.781, K -0.509, L -0.602, D -0.324, Q -0.463, A -0.582, W -1.55, E -0.877, I -1.02, S -0.315, T -0.33, R -0.427

Variants of: B2
Experiment: as above
Conditions: Homo sapiens

Abundance fitness, by site and new letter:
G8: C -0.319, E -0.045, H -0.06, A 0.009
Q1: R -0.228, Y 0.172, L -0.027, H -0.504, W -0.032, P -0.439, I 0.198, N -0.053, V 0.06, S -0.058, A -0.144, M 0.007, T 0.106, D 0.071, C -0.019, F 0.16, K 0.076, G 0.048
I6: A -0.427, S -0.617, D -0.646, K -1.05, T -0.256, M -0.811, C -0.327, L -0.789, V -0.243, Q -0.459, R -0.525
T3: W -0.115, S -0.059, C 0.014, P -0.229, Y -0.003, H -0.225, N 0.035, Q -0.04, G -0.078, A -0.081, R -0.083, D -0.171, E -0.148, I 0.009, K -0.252, V -0.245, L -0.035
C4: R -0.114, W -0.964, G -0.61, Y -0.884, H -0.851, E -0.563, M -0.679, K -0.87, L -0.745
L5: G -0.189, S -0.013, V -0.145, K -0.053, H -0.137, D -0.065, W -0.122, M -0.212, F -0.078, C -0.07, I -0.04, E -0.071, T -0.01, N -0.058, P -0.296, A -0.109, Y -0.162, Q -0.113, R -0.105
C7: L -0.886, S -0.615, N -0.212, T -0.819, Y -0.583, W -0.79, G -0.874, E -1.03, V -1.2
